The values below come from US20230151068A1.

As a reminder, the EC50 (read off the curve) is the concentration at which the effect is half-maximal. A low value points to an effect from little substance. What is called koff is the rate constant with which the complex falls apart. The low end stands for slow dissociation, the high end for fast dissociation. A word on the kon: it is the second-order rate constant of association. Read a low kon as slow association. The Kd is the equilibrium constant for the complex coming apart.

For one test, the target named is biotinylated His-Avi-TEAD (194-411) (UniProt P28347). The experiment in a line: SPR, steady-state response against peptide concentration (M, log axis) with fitted curve. On the technique in general: In SPR one partner is held on a chip, and binding of the other changes the refractive index at the surface.
For the molecule GSPDEYIERAKECCKKQDIQCCLRIFDESKDPNVMLICLFCP (designed binder) [peptide of SEQ ID NO: 11], the EC50 (read off the curve) is 6 nM.
Molecule GSPDEYIERARRCCRRGDIQCCLRYFEESGDPNVMLICLFCP (designed binder) [peptide of SEQ ID NO: 8] came in with an EC50 (read off the curve) of 40 nM.

The next test shares this target. Briefly: SPR (Biacore T100, 25 C), captured biotinylated TEAD, peptide as analyte, kinetics 1:1 binding.
GSPDEYIERAKECCKKQDIQCCLRIFDESKDPNVMLICLFCP (designed binder) [peptide of SEQ ID NO: 11] displayed a koff of 0.117 s⁻¹ and a kon of 3.1e+07 M⁻¹ s⁻¹.

For the next test the target is unchanged. Briefly: SPR, single cycle kinetics, biotinylated TEAD captured on the chip, peptide injected at 0.044, 0.133, 0.4, 1.2, 3.6 nM.
GSPDEYIERAKECCKKQDIQCCLRIFDESGDPNVMLICLFCW (designed binder) [peptide of SEQ ID NO: 10] gave a Kd of 0.372 nM.

A further test has the same target. The experiment in a line: SSM screen, enrichment after two rounds of sorting.
For the molecule GSPDEYIHRAKECCKKGDIQCCLRYFEESGDPNVMLICLFCP (designed binder) [E06H variant of SEQ ID NO: 1], the enrichment score was -1.57.
Take GSPDEYIEREKECCKKGDIQCCLRYFEESGDPNVMLICLFCP (designed binder) [A08E variant of SEQ ID NO: 1]: the enrichment score was -2.66.
Turning to GSPDEYIERAHECCKKGDIQCCLRYFEESGDPNVMLICLFCP (designed binder) [K09H variant of SEQ ID NO: 1], the enrichment score was -1.5.
Take GSPDEHIERAKECCKKGDIQCCLRYFEESGDPNVMLICLFCP (designed binder) [Y04H variant of SEQ ID NO: 1]: the enrichment score is -1.9.
In turn, GSPDEYIERAKHCCKKGDIQCCLRYFEESGDPNVMLICLFCP (designed binder) [E10H variant of SEQ ID NO: 1] displayed an enrichment score of -1.97.
Same read-out and setting: then GSPDEYIEEAKECCKKGDIQCCLRYFEESGDPNVMLICLFCP (designed binder) [R07E variant of SEQ ID NO: 1], with -0.16; and GSPDEYIERAEECCKKGDIQCCLRYFEESGDPNVMLICLFCP (designed binder) [K09E variant of SEQ ID NO: 1], with 3.95.
GSHDEYIERAKECCKKGDIQCCLRYFEESGDPNVMLICLFCP (designed binder) [P01H variant of SEQ ID NO: 1] came in with an enrichment score of -0.88.
Molecule GSPDEYIERHKECCKKGDIQCCLRYFEESGDPNVMLICLFCP (designed binder) [A08H variant of SEQ ID NO: 1] came in with an enrichment score of -7.27.
Molecule GSPDEYIEHAKECCKKGDIQCCLRYFEESGDPNVMLICLFCP (designed binder) [R07H variant of SEQ ID NO: 1] displayed an enrichment score of -0.32.
In turn, GSPDEKIERAKECCKKGDIQCCLRYFEESGDPNVMLICLFCP (designed binder) [Y04K variant of SEQ ID NO: 1] came in with an enrichment score of -1.58.
Take GSPDEYHERAKECCKKGDIQCCLRYFEESGDPNVMLICLFCP (designed binder) [I05H variant of SEQ ID NO: 1]: the enrichment score was -2.99.
Consider GSPDHYIERAKECCKKGDIQCCLRYFEESGDPNVMLICLFCP (designed binder) [E03H variant of SEQ ID NO: 1], for which the enrichment score is -0.31.
In the case of GSPDEYEERAKECCKKGDIQCCLRYFEESGDPNVMLICLFCP (designed binder) [I05E variant of SEQ ID NO: 1], the enrichment score is -1.23.
The molecule GSPDKYIERAKECCKKGDIQCCLRYFEESGDPNVMLICLFCP (designed binder) [E03K variant of SEQ ID NO: 1] yielded an enrichment score of -0.5.
Still for that read-out and setting: with GSPHEYIERAKECCKKGDIQCCLRYFEESGDPNVMLICLFCP (designed binder) [D02H variant of SEQ ID NO: 1] the figure was -1.05; with GSPKEYIERAKECCKKGDIQCCLRYFEESGDPNVMLICLFCP (designed binder) [D02K variant of SEQ ID NO: 1], -1.07.
Take GSKDEYIERAKECCKKGDIQCCLRYFEESGDPNVMLICLFCP (designed binder) [P01K variant of SEQ ID NO: 1]: the enrichment score was -0.29.

The target is the same in the next test. Briefly: SPR (Biacore T100, 25 C), captured biotinylated TEAD, peptide as analyte, steady-state.
GSPDEYIERAKECCKKQDIQCCLRIFDESKDPNVMLICLFCP (designed binder) [peptide of SEQ ID NO: 11] had a Kd of 6.3 nM.
GSPDEYIERARRCCRRGDIQCCLRYFEESGDPNVMLICLFCP (designed binder) [peptide of SEQ ID NO: 8]: the Kd amounted to 39 nM.

The target is the same in a further test. The experiment in a line: SPR (Biacore T100, 25 C), captured biotinylated TEAD, peptide as analyte, single cycle kinetics.
The molecule GSPDEYIERAKECCKKQDIQCCLRIFDESGDPNVMLICLFCW (designed binder) [peptide of SEQ ID NO: 10] displayed a Kd of 0.372 nM, a koff of 0.00767 s⁻¹ and a kon of 2.06e+07 M⁻¹ s⁻¹.
